# Test results as given in US20240294593A1 (Genentech, published 2024).
# Where a chain is given by its changes, count along the chain named. Names may count otherwise.
# B1: H1.1_L1 (antibody, human IgG1, kappa, V domains shown)
# VH: EVQLVESGGGLVQPGGSLRLSCAASGFTFTSFGMHWVRQAPGKGLEWVSYISSGSSIIYYADSVKGRFTISRDNAKNSLYLQMNSLRAEDTAVYYCARGGRLVWSPDYWGQGTLVTVSS
# VL: DIVMTQSPDSLAVSLGERATINCKSSQSLLNSGNQKNYLTWYQQKPGQPPKLLIYWASTRESGVPDRFTGSGSGTDFTLTISSLQAEDVAVYYCQNDYSYPFTFGSGTKLEIKR
# notes: also called VH-S30T; Kabat 30T; copies: 2 + 2
# B2: H1.3_L1 (antibody, human IgG1, kappa, V domains shown)
# VH: B1 VH with T30Q
# VL: B1 VL
# notes: also called VH-S30Q; Kabat 30Q; copies: 2 + 2
# B3: H1.2_L1 (antibody, human IgG1, kappa, V domains shown)
# VH: B1 VH with T30A
# VL: B1 VL
# notes: also called VH-S30A; Kabat 30A; copies: 2 + 2
# B4: H1.44_L1 (antibody, human IgG1, kappa, V domains shown)
# VH: B1 VH with T30S, S52E
# VL: B1 VL
# notes: also called VH-S54E; Kabat 52E
# B5: H1.59_L1 (antibody, human IgG1, kappa, V domains shown)
# VH: B1 VH with T30S, G54K
# VL: B1 VL
# notes: also called VH-G56K; Kabat 53; copies: 2 + 2
# B6: H1.42_L1 (antibody, human IgG1, kappa, V domains shown)
# VH: B1 VH with T30S, S52K
# VL: B1 VL
# notes: also called VH-S54K; Kabat 52K
# B7: H1.60_L1 (antibody, human IgG1, kappa, V domains shown)
# VH: B1 VH with T30S, G54L
# VL: B1 VL
# notes: also called VH-G56L; Kabat 53; copies: 2 + 2
# B8: H1.40_L1 (antibody, human IgG1, kappa, V domains shown)
# VH: B1 VH with T30S, S52V
# VL: B1 VL
# notes: also called VH-S54V; Kabat 52V; copies: 2 + 2
# B9: H1.54_L1 (antibody, human IgG1, kappa, V domains shown)
# VH: B1 VH with T30S, G54A
# VL: B1 VL
# notes: also called VH-G56A; Kabat 53A; copies: 2 + 2
# B10: H1.70_L1 (antibody, human IgG1, kappa, V domains shown)
# VH: B1 VH with T30S, S55E
# VL: B1 VL
# notes: also called VH-S59E; Kabat 54; copies: 2 + 2
# B11: H1.66_L1 (antibody, human IgG1, kappa, V domains shown)
# VH: B1 VH with T30S, S55V
# VL: B1 VL
# notes: also called VH-S59V; Kabat 54; copies: 2 + 2
# B12: H1.61_L1 (antibody, human IgG1, kappa, V domains shown)
# VH: B1 VH with T30S, G54Y
# VL: B1 VL
# notes: also called VH-G56Y; Kabat 53; copies: 2 + 2
# B13: H1.39_L1 (antibody, human IgG1, kappa, V domains shown)
# VH: B1 VH with T30S, S52G
# VL: B1 VL
# notes: also called VH-S54G; Kabat 52G; copies: 2 + 2
# B14: H1.49_L1 (antibody, human IgG1, kappa, V domains shown)
# VH: B1 VH with T30S, S53V
# VL: B1 VL
# notes: also called VH-S55V; Kabat 52aV; copies: 2 + 2
# B15: H1.65_L1 (antibody, human IgG1, kappa, V domains shown)
# VH: B1 VH with T30S, S55G
# VL: B1 VL
# notes: also called VH-S59G; Kabat 54; copies: 2 + 2
# B16: H1.64_L1 (antibody, human IgG1, kappa, V domains shown)
# VH: B1 VH with T30S, S55Q
# VL: B1 VL
# notes: also called VH-S59Q; Kabat 54; copies: 2 + 2
# B17: H1.46_L1 (antibody, human IgG1, kappa, V domains shown)
# VH: B1 VH with T30S, S53A
# VL: B1 VL
# notes: also called VH-S55A; Kabat 52aA
# B18: H1.55_L1 (antibody, human IgG1, kappa, V domains shown)
# VH: B1 VH with T30S, G54S
# VL: B1 VL
# notes: also called VH-G56S; Kabat 53S; copies: 2 + 2
# B19: H1.68_L1 (antibody, human IgG1, kappa, V domains shown)
# VH: B1 VH with T30S, S55K
# VL: B1 VL
# notes: also called VH-S59K; Kabat 54; copies: 2 + 2
# B20: H1.47_L1 (antibody, human IgG1, kappa, V domains shown)
# VH: B1 VH with T30S, S53Q
# VL: B1 VL
# notes: also called VH-S55Q; Kabat 52aQ
# B21: H1.41_L1 (antibody, human IgG1, kappa, V domains shown)
# VH: B1 VH with T30S, S52H
# VL: B1 VL
# notes: also called VH-S54H; Kabat 52H; copies: 2 + 2
# B22: H1.37_L1 (antibody, human IgG1, kappa, V domains shown)
# VH: B1 VH with T30S, S52A
# VL: B1 VL
# notes: also called VH-S54A; Kabat 52A; copies: 2 + 2
# B23: H1.58_L1 (antibody, human IgG1, kappa, V domains shown)
# VH: B1 VH with T30S, G54H
# VL: B1 VL
# notes: also called VH-G56H; Kabat 53; copies: 2 + 2
# B24: H1.57_L1 (antibody, human IgG1, kappa, V domains shown)
# VH: B1 VH with T30S, G54Q
# VL: B1 VL
# notes: also called VH-G56Q; Kabat 53Q; copies: 2 + 2
# B25: H1.72_L1 (antibody, human IgG1, kappa, V domains shown)
# VH: B1 VH with T30S, S56A
# VL: B1 VL
# notes: also called VH-S60A; Kabat 55; copies: 2 + 2
# B26: H1.67_L1 (antibody, human IgG1, kappa, V domains shown)
# VH: B1 VH with T30S, S55H
# VL: B1 VL
# notes: also called VH-S59H; Kabat 54; copies: 2 + 2
# B27: H1.38_L1 (antibody, human IgG1, kappa, V domains shown)
# VH: B1 VH with T30S, S52Q
# VL: B1 VL
# notes: also called VH-S54Q; Kabat 52Q; copies: 2 + 2
# B28: H1.63_L1 (antibody, human IgG1, kappa, V domains shown)
# VH: B1 VH with T30S, S55A
# VL: B1 VL
# notes: also called VH-S59A; Kabat 54; copies: 2 + 2
# B29: H1.62_L1 (antibody, human IgG1, kappa, V domains shown)
# VH: B1 VH with T30S, S55T
# VL: B1 VL
# notes: also called VH-S59T; Kabat 54; copies: 2 + 2
# B30: H1.51_L1 (antibody, human IgG1, kappa, V domains shown)
# VH: B1 VH with T30S, S53K
# VL: B1 VL
# notes: also called VH-S55K; Kabat 52aK
# B31: H1.69_L1 (antibody, human IgG1, kappa, V domains shown)
# VH: B1 VH with T30S, S55Y
# VL: B1 VL
# notes: also called VH-S59Y; Kabat 54; copies: 2 + 2
# B32: H1.50_L1 (antibody, human IgG1, kappa, V domains shown)
# VH: B1 VH with T30S, S53H
# VL: B1 VL
# notes: also called VH-S55H; Kabat 52aH; copies: 2 + 2
# B33: H1.56_L1 (antibody, human IgG1, kappa, V domains shown)
# VH: B1 VH with T30S, G54T
# VL: B1 VL
# notes: also called VH-G56T; Kabat 53T; copies: 2 + 2
# B34: H1.53_L1 (antibody, human IgG1, kappa, V domains shown)
# VH: B1 VH with T30S, S53E
# VL: B1 VL
# notes: also called VH-S55E; Kabat 52aE
# B35: H1.48_L1 (antibody, human IgG1, kappa, V domains shown)
# VH: B1 VH with T30S, S53G
# VL: B1 VL
# notes: also called VH-S55G; Kabat 52aG
# B36: H1.71_L1 (antibody, human IgG1, kappa, V domains shown)
# VH: B1 VH with T30S, S56T
# VL: B1 VL
# notes: also called VH-S60T; Kabat 55; copies: 2 + 2
# B37: H1.52_L1 (antibody, human IgG1, kappa, V domains shown)
# VH: B1 VH with T30S, S53Y
# VL: B1 VL
# notes: also called VH-S55Y; Kabat 52aY
# B38: H1.43_L1 (antibody, human IgG1, kappa, V domains shown)
# VH: B1 VH with T30S, S52Y
# VL: B1 VL
# notes: also called VH-S54Y; Kabat 52Y
# B39: H1.45_L1 (antibody, human IgG1, kappa, V domains shown)
# VH: B1 VH with T30S, S53T
# VL: B1 VL
# notes: also called VH-S55T; Kabat 52aT
# Molecular target: T1, human PD-1-His (human, UniProt Q15116 25-167, limits assumed)
# T1 construct: Antigen of the Octet assays; not shown: His tag
# T1 sequence (Q15116 25-167 limits assumed): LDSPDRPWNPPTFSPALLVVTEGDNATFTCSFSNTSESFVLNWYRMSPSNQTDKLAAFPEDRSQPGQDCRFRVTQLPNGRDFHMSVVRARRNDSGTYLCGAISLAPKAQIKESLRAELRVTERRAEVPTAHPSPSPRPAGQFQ
# Assay: Octet
Binder,Kd [nM],koff [s⁻¹],kon [M⁻¹ s⁻¹]
B1,32.1,0.00407,127000
B2,40,0.00472,118000
B3,35.6,0.00432,121000

# Molecular target: T1, human PD-1-His
# Assay: Octet
# Remark: another data set of the same source
Binder,Kd [nM],koff [s⁻¹],kon [M⁻¹ s⁻¹]
B4,183,0.0225,123000
B5,37.6,0.00494,131000
B6,500,0.0265,53000
B7,35.9,0.00458,128000
B8,231,0.0293,127000
B9,34.5,0.00432,125000
B10,48,0.00674,140000
B11,112,0.0129,115000
B12,41.5,0.00574,138000
B13,115,0.0178,154000
B14,92.8,0.0136,147000
B15,61,0.00827,136000
B16,59.1,0.00783,132000
B17,41.9,0.00529,126000
B18,33.9,0.00457,135000
B19,74,0.00808,109000
B20,117,0.0159,136000
B21,74.6,0.0104,140000

Binder,Kd [nM],koff [s⁻¹],kon [M⁻¹ s⁻¹]
B22,56,0.00763,136000
B23,43.9,0.00544,124000
B24,30.9,0.00464,150000
B25,62.5,0.00701,112000
B26,49.2,0.00692,141000
B27,57.5,0.00776,135000
B28,42.4,0.00619,146000
B29,59.9,0.00774,129000
B30,54.9,0.00567,103000
B31,59.6,0.00818,137000
B32,24.2,0.00287,119000
B33,31.5,0.00407,129000
B34,96,0.0283,295000
B35,20.1,0.00293,146000
B36,45.8,0.00505,110000
B37,33.1,0.00423,128000
B38,665,0.148,223000
B39,74.5,0.0091,122000
